According to ChEMBL document CHEMBL3769311, “The natural flavone fukugetin as a mixed-type inhibitor for human tissue kallikreins” (Bioorg Med Chem Lett, 2016):

How the values were obtained:
[1] = substrate: O=C1CC(c2ccc(O)c(O)c2)Oc2c1c(O)cc(O)c2[C@@H]1C(=O)c2c(O)cc(O)cc2O[C@H]1c1ccc(O)cc1; details: Homo sapiens; 8 uM
Description: Mixed-type inhibition of human tissue kallikrein-2 expressed in baculovirus infected insect cells using Abz-KLRSSQ-EDDnp as substrate assessed as substrate Km at 8 uM by Lineweaver-Burk plot analysis

[2] = substrate: O=C1CC(c2ccc(O)c(O)c2)Oc2c1c(O)cc(O)c2[C@@H]1C(=O)c2c(O)cc(O)cc2O[C@H]1c1ccc(O)cc1; details: Homo sapiens; 10 uM
[3] = substrate: O=C1CC(c2ccc(O)c(O)c2)Oc2c1c(O)cc(O)c2[C@@H]1C(=O)c2c(O)cc(O)cc2O[C@H]1c1ccc(O)cc1; details: Homo sapiens; 10 uM; remark: listed apart in the source
Description: Mixed-type inhibition of human tissue kallikrein-2 expressed in baculovirus infected insect cells using Abz-KLRSSQ-EDDnp as substrate assessed as substrate Km at 10 uM by Lineweaver-Burk plot analysis

[4] = substrate: O=C1CC(c2ccc(O)c(O)c2)Oc2c1c(O)cc(O)c2[C@@H]1C(=O)c2c(O)cc(O)cc2O[C@H]1c1ccc(O)cc1; details: Homo sapiens; 8 uM; remark: listed apart in the source
[5] = substrate: O=C1CC(c2ccc(O)c(O)c2)Oc2c1c(O)cc(O)c2[C@@H]1C(=O)c2c(O)cc(O)cc2O[C@H]1c1ccc(O)cc1; details: Homo sapiens; 4 uM
[6] = substrate: O=C1CC(c2ccc(O)c(O)c2)Oc2c1c(O)cc(O)c2[C@@H]1C(=O)c2c(O)cc(O)cc2O[C@H]1c1ccc(O)cc1; details: Homo sapiens; 2 uM
[7] = substrate: O=C1CC(c2ccc(O)c(O)c2)Oc2c1c(O)cc(O)c2[C@@H]1C(=O)c2c(O)cc(O)cc2O[C@H]1c1ccc(O)cc1; details: Homo sapiens; 4 uM; remark: listed apart in the source
Description: Mixed-type inhibition of human tissue kallikrein-2 expressed in baculovirus infected insect cells using Abz-KLRSSQ-EDDnp as substrate assessed as substrate Km at 4 uM by Lineweaver-Burk plot analysis

[8] = substrate: O=C1CC(c2ccc(O)c(O)c2)Oc2c1c(O)cc(O)c2[C@@H]1C(=O)c2c(O)cc(O)cc2O[C@H]1c1ccc(O)cc1; details: Homo sapiens; 2 uM; remark: listed apart in the source
Description: Mixed-type inhibition of human tissue kallikrein-2 expressed in baculovirus infected insect cells using Abz-KLRSSQ-EDDnp as substrate assessed as substrate Km at 2 uM by Lineweaver-Burk plot analysis

B1: Kallikrein-2 (Homo sapiens), P20151 (protein)
chain: MWDLVLSIALSVGCTGAVPLIQSRIVGGWECEKHSQPWQVAVYSHGWAHCGGVLVHPQWVLTAAHCLKKNSQVWLGRHNLFEPEDTGQRVPVSHSFPHPLYNMSLLKHQSLRPDEDSSHDLMLLRLSEPAKITDVVKVLGLPTQEPALGTTCYASGWGSIEPEEFLRPRSLQCVSLHLLSNDMCARAYSEKVTEFMLCAGLWTGGKDTCGGDSGGPLVCNGVLQGITSWGPEPCALPEKPAVYTKVVHYRKWIKDTIAANP
B1 showed a Km [1] of 1.04 µM, a Vmax [2] of 79 µM/s and a Km [3] of 1.2 µM. It also gave a Vmax [4] of 110 µM/s, a Vmax [5] of 144 µM/s and a Vmax [6] of 192 µM/s. For the same protein, the Km [7] was 0.81 µM and the Km [8] was 0.72 µM.
